Data: FireProtDB (doi:10.1038/s41589-020-0556-3)
Values joined by “and” are separate entries in the source; they are usually repeats but may differ in a detail not shown here. Identical values can stand only once.

B1: Barstar, P11540 (parent)
chain: MKKAVINGEQIRSISDLHQTLKKELALPEYYGENLDALWDCLTGWVEYPLVLEWRQFEQSKQLTENGAESVLQVFREAKAEGCDITIILS

Variants of: B1
Conditions: Bacillus amyloliquefaciens; pH 7.5; 25 °C; Urea; fluorescence; HEPES; KCL / MgOAc 150000 / 15000; transition: 2; structure 1BTA; whole UniProt chain shown

| Variant | denaturant m value | denaturant midpoint (higher = more stable) | unfolding free energy |
| --- | --- | --- | --- |
| MKKAVINGEQIRSISDLHQTLKKELALPEYYGENLDALWDCLTGWVEYPLVLEWRQFEQSKQLTENGAESVLQVFREAAAEGCDITIILS [K79A] | 0.89 kcal/mol/M and 0.48 kcal/mol/M | 4.65 M and 4.24 M | 4.16 kcal/mol |
| MKAAVINGEQIRSISDLHQTLKKELALPEYYGENLDALWDCLTGWVEYPLVLEWRQFEQSKQLTENGAESVLQVFREAKAEGCDITIILS [K3A] | 1.06 kcal/mol/M and 0.59 kcal/mol/M | 4.97 M and 2.52 M | 5.27 kcal/mol |
| MKKAVINGEQIRSISDLHQTLKKELALPEYYGENLDALWDCLTGWVEYPLVLEWRQFEQSAQLTENGAESVLQVFREAKAAGCDITIILS [K61A E81A] | 1.16 kcal/mol/M and 0.7 kcal/mol/M | 6.02 M and 3.72 M | 6.99 kcal/mol |
| MKKAVINGEQIRSISDLHQTLKKELALPEYYGENLDALWDCLTGWVEYPLVLEWRQFEQSAQLTENGAESVLQVFREAKAEGCDITIILS [K61A] | 0.96 kcal/mol/M and 0.68 kcal/mol/M | 4.41 M and 2.51 M | 4.25 kcal/mol |
